Data: publication PMC5167779

Columns and labels:
[1] = target: XfYgiT, antitoxin of the toxin-antitoxin system of Xylella fastidiosa subsp. pauca strain 9a5c (Xylella fastidiosa subsp. pauca strain 9a5c); test: SEC
[2] = target: XfYgiT, antitoxin of the toxin-antitoxin system of Xylella fastidiosa subsp. pauca strain 9a5c (Xylella fastidiosa subsp. pauca strain 9a5c); test: AUC
[3] = target: XfYgiT, antitoxin of the toxin-antitoxin system of Xylella fastidiosa subsp. pauca strain 9a5c (Xylella fastidiosa subsp. pauca strain 9a5c); test: ITC
[4] = target: XfYgiT, antitoxin of the toxin-antitoxin system of Xylella fastidiosa subsp. pauca strain 9a5c (Xylella fastidiosa subsp. pauca strain 9a5c); test: SEC; […], sodium phosphate buffer ([…]

Substance	stoichiometry N (mol/mol (printed as 1:1)) [1]	stoichiometry N (mol/mol (printed as 2:2)) [2]	dH [3]	stoichiometry N (mol/mol (printed as 1:1)) [3]	stoichiometry N [4]	stoichiometry N [2]
XfMqsR, toxin of the toxin-antitoxin system of Xylella fastidiosa subsp. pauca strain 9a5c (natural protein)	1	1	-8.61 kcal/mol	1	–	–
XfYgiT, antitoxin of the toxin-antitoxin system of Xylella fastidiosa subsp. pauca strain 9a5c (natural protein)	–	–	–	–	2	2
